This passage reports FRET efficiency E and FRET efficiency E (fluorophores swapped: LKSCy3:UKPCy5) results from paper PMC3898201.

Assay [1] deals with proteasome catalytic subunit β2 (in the purified rabbit 20S constitutive proteasome) (rabbit). In words: FRET or BRET. (BRET reads energy transfer from a luciferase to a nearby fluorophore.)
Assay [2] addresses proteasome catalytic subunit β5 (in the purified rabbit 20S constitutive proteasome) (rabbit). In words: FRET or BRET.

In turn, “proteasome catalytic subunit β5 (in the purified rabbit 20S constitutive proteasome) (natural protein)” returned an FRET efficiency E in assay [1] of 0.45.

As to “proteasome catalytic subunit β1 (in the purified rabbit 20S constitutive proteasome) (natural protein)”, the FRET efficiency E in assay [1] came to 0.18. In assay [2], this substance came in with an FRET efficiency E of 0.55 and an FRET efficiency E (fluorophores swapped: LKSCy3:UKPCy5) of 0.55.
